Measurements as given in patent US20250281538A1 (US Dept. of Health and Human Services, published 2025).

T1: GPC2 antigen (UniProt Q8N158 24-553, limits assumed)
T1 construct: also called glypican-2
T1 sequence (looked up): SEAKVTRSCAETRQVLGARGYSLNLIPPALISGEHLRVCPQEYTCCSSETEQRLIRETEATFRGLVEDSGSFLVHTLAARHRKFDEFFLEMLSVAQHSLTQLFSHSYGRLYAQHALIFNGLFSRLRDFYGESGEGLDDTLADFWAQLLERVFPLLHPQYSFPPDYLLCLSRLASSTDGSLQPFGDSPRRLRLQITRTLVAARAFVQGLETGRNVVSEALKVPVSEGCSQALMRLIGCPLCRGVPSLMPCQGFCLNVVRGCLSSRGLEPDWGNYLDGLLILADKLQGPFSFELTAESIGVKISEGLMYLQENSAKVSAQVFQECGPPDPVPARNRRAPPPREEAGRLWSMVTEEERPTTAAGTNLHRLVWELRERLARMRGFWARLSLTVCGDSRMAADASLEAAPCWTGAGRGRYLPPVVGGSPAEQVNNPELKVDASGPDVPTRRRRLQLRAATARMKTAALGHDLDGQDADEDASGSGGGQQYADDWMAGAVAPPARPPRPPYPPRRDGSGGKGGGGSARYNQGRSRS

B1: CT3 CAR (CT3-CD28HTM) (other)
VH: EVQLQQSGPELVKPGASVKMSCKASRFTFTDYNIHWVKQSPGKTLEWIGYINPNNGDIFYKQKFNGKATLTINKSSNTAYMELRSLTSEDSAVYYCVRSSNIRYTFDRFFDVWGTGTTVTVSS
VL: ENVLTQSPAIMSASLGEKVTMSCRASSSVNYIYWYQQKSDASPKLWIYYTSNLAPGVPARFSGSGSGNSYSLTISSMEGEDAATYYCQQFSSSPSTFGTGTKLELK
notes: Only the CT3 VH and VL are tied to the antibody
B2: ART-hCT3-1-hCT3-1 AbTCR+CSR (other)
chain 1: DVVMTQSPLSLPVTPGEPASISCRASSSVNYIYWYLQKPGQSPQLWIYYTSNLAPGVPDRFSGSGSGTDFTLKISRVEAEDVGVYYCQQFSSSPSTFGQGTKLEIKRSRGGGGSGGGGSGGGGSLEMAQVQLVQSGAEVKKPGASVKVSCKASRFTFTDYNIHWVRQAPGQGLEWIGYINPNNGDIFYKQKFNGRVTLTADKSTSTAYMELSSLTSEDTAVYYCVRSSNIRYTFDRFFDVWGQGTLVTVSSEQKLISEEDLAAATGAPPLGTQPDCNPTPENGEAPASTSPTQSLLVDSQASKTLPIPTSAPVALSSTGKPVLDAGPVLFWVILVLVVVVGSSAFLLCHRRACRKRIRQKLHLCYPVQTSQPKLELVDSRPRRSSTQLRSGASVTEPVAEERGLMSQPLMETCHSVGAAYLESLPLQDASPAGGPSSPRDLPEPRVSTEHTNNKIEKIYIMKADTVIVGTVKAELPEGRGLAGPAEPELEEELEADHTPHYPEQETEPPLGSCSDVMLSVEEEGKEDPLPTAASGK
chain 2: QVQLVQSGAEVKKPGASVKVSCKASRFTFTDYNIHWVRQAPGQGLEWIGYINPNNGDIFYKQKFNGRVTLTADKSTSTAYMELSSLTSEDTAVYYCVRSSNIRYTFDRFFDVWGQGTLVTVSSASTKGPSVFPLAPSSKSTSGGTAALGCLVKDYFPEPVTVSWNSGALTSGVHTFPAVLQSSGLYSLSSVVTVPSSSLGTQTYICNVNHKPSNTKVDKRVEPKSCEVKTDSTDHVKPKETENTKQPSKSCHKPKAIVHTEKVNMMSLTVLGLRMLFAKTVAVNFLLTAKLFFL
chain 3: DVVMTQSPLSLPVTPGEPASISCRASSSVNYIYWYLQKPGQSPQLWIYYTSNLAPGVPDRFSGSGSGTDFTLKISRVEAEDVGVYYCQQFSSSPSTFGQGTKLEIKRTVAAPSVFIFPPSDEQLKSGTASVVCLLNNFYPREAKVQWKVDNALQSGNSQESVTEQDSKDSTYSLSSTLTLSKADYEKHKVYACEVTHQGLSSPVTKSFNRGECPIKTDVITMDPKDNCSKDANDTLLLQLTNTSAYYMYLLLLLKSVVYFAIITCCLLRRTAFCCNGEKS
notes: also called ART-hCT3-hCT3; hCT3 AbTCR+CSR
B3: ART-CT3-CT3 AbTCR+CSR (other)
chain 1: ENVLTQSPAIMSASLGEKVTMSCRASSSVNYIYWYQQKSDASPKLWIYYTSNLAPGVPARFSGSGSGNSYSLTISSMEGEDAATYYCQQFSSSPSTFGTGTKLELKRSRGGGGSGGGGSGGGGSLEMAEVQLQQSGPELVKPGASVKMSCKASRFTFTDYNIHWVKQSPGKTLEWIGYINPNNGDIFYKQKFNGKATLTINKSSNTAYMELRSLTSEDSAVYYCVRSSNIRYTFDRFFDVWGTGTTVTVSSEQKLISEEDLAAATGAPPLGTQPDCNPTPENGEAPASTSPTQSLLVDSQASKTLPIPTSAPVALSSTGKPVLDAGPVLFWVILVLVVVVGSSAFLLCHRRACRKRIRQKLHLCYPVQTSQPKLELVDSRPRRSSTQLRSGASVTEPVAEERGLMSQPLMETCHSVGAAYLESLPLQDASPAGGPSSPRDLPEPRVSTEHTNNKIEKIYIMKADTVIVGTVKAELPEGRGLAGPAEPELEEELEADHTPHYPEQETEPPLGSCSDVMLSVEEEGKEDPLPTAASGK
chain 2: EVQLQQSGPELVKPGASVKMSCKASRFTFTDYNIHWVKQSPGKTLEWIGYINPNNGDIFYKQKFNGKATLTINKSSNTAYMELRSLTSEDSAVYYCVRSSNIRYTFDRFFDVWGTGTTVTVSSASTKGPSVFPLAPSSKSTSGGTAALGCLVKDYFPEPVTVSWNSGALTSGVHTFPAVLQSSGLYSLSSVVTVPSSSLGTQTYICNVNHKPSNTKVDKRVEPKSCEVKTDSTDHVKPKETENTKQPSKSCHKPKAIVHTEKVNMMSLTVLGLRMLFAKTVAVNFLLTAKLFFL
chain 3: ENVLTQSPAIMSASLGEKVTMSCRASSSVNYIYWYQQKSDASPKLWIYYTSNLAPGVPARFSGSGSGNSYSLTISSMEGEDAATYYCQQFSSSPSTFGTGTKLELKRTVAAPSVFIFPPSDEQLKSGTASVVCLLNNFYPREAKVQWKVDNALQSGNSQESVTEQDSKDSTYSLSSTLTLSKADYEKHKVYACEVTHQGLSSPVTKSFNRGECPIKTDVITMDPKDNCSKDANDTLLLQLTNTSAYYMYLLLLLKSVVYFAIITCCLLRRTAFCCNGEKS
notes: AbTCR heterodimer and CSR are expressed together on one cell
B4: ART-HN3-HN3 AbTCR+CSR (protein)
chain 1: QVQLVQSGGGLVQPGGSLRLSCAASYFDFDSYEMSWVRQAPGKGLEWIGSIYHSGSTYYNPSLKSRVTISRDNSKNTLYLQMNTLRAEDTATYYCARVNMDRFDYWGQGTLVTVSSEQKLISEEDLAAATGAPPLGTQPDCNPTPENGEAPASTSPTQSLLVDSQASKTLPIPTSAPVALSSTGKPVLDAGPVLFWVILVLVVVVGSSAFLLCHRRACRKRIRQKLHLCYPVQTSQPKLELVDSRPRRSSTQLRSGASVTEPVAEERGLMSQPLMETCHSVGAAYLESLPLQDASPAGGPSSPRDLPEPRVSTEHTNNKIEKIYIMKADTVIVGTVKAELPEGRGLAGPAEPELEEELEADHTPHYPEQETEPPLGSCSDVMLSVEEEGKEDPLPTAASGK
chain 2: QVQLVQSGGGLVQPGGSLRLSCAASYFDFDSYEMSWVRQAPGKGLEWIGSIYHSGSTYYNPSLKSRVTISRDNSKNTLYLQMNTLRAEDTATYYCARVNMDRFDYWGQGTLVTVSSASTKGPSVFPLAPSSKSTSGGTAALGCLVKDYFPEPVTVSWNSGALTSGVHTFPAVLQSSGLYSLSSVVTVPSSSLGTQTYICNVNHKPSNTKVDKRVEPKSCEVKTDSTDHVKPKETENTKQPSKSCHKPKAIVHTEKVNMMSLTVLGLRMLFAKTVAVNFLLTAKLFFL
chain 3: QVQLVQSGGGLVQPGGSLRLSCAASYFDFDSYEMSWVRQAPGKGLEWIGSIYHSGSTYYNPSLKSRVTISRDNSKNTLYLQMNTLRAEDTATYYCARVNMDRFDYWGQGTLVTVSSRTVAAPSVFIFPPSDEQLKSGTASVVCLLNNFYPREAKVQWKVDNALQSGNSQESVTEQDSKDSTYSLSSTLTLSKADYEKHKVYACEVTHQGLSSPVTKSFNRGECPIKTDVITMDPKDNCSKDANDTLLLQLTNTSAYYMYLLLLLKSVVYFAIITCCLLRRTAFCCNGEKS
B5: hCT3 CAR (hCT3-1 CD28HTM) (other)
VH: QVQLVQSGAEVKKPGASVKVSCKASRFTFTDYNIHWVRQAPGQGLEWIGYINPNNGDIFYKQKFNGRVTLTADKSTSTAYMELSSLTSEDTAVYYCVRSSNIRYTFDRFFDVWGQGTLVTVSS
VL: DVVMTQSPLSLPVTPGEPASISCRASSSVNYIYWYLQKPGQSPQLWIYYTSNLAPGVPDRFSGSGSGTDFTLKISRVEAEDVGVYYCQQFSSSPSTFGQGTKLEIK
notes: only hCT3-1 VH and VL are tied to the antibody; also called hCT3-CD28HTM

Key:
GPC2 antigen = target: T1, GPC2 antigen; test: flow cytometry of Jurkat T cells expressing the construct, GPC2 binding read in the APC channel; GPC2 concentration not given
From the text: Shown in FIG. 12 is a flow cytometric analysis of Jurkat T cells expressing CT3 and hCT3 CARs (CT3-CD28HTM and hCT3-1 CD28HTM, respectively) and AbTCRs+CSRs (ART-CT3-CT3 and ART-hCT3-1-hCT3-1, respectively). T cells expressing each of the constructs were capable of binding to GPC2 antigen. Mock T cells not expressing a CAR or AbTCR+CSR were included as a negative control.

GPC3 protein [1] = target: GPC3 protein (UniProt P51654); test: flow cytometry of Jurkat T cells expressing the construct, stained with 4.6ng/ml (0.08nM) GPC3-hFc
GPC3 protein [2] = target: GPC3 protein (UniProt P51654); test: flow cytometry of Jurkat T cells expressing the construct, stained with 2.3ng/ml (0.04nM) GPC3-hFc

Row | Binder | percent of cells in the GPC2-binding-positive gate (GPC2 antigen) [%] | percent of cells in the binding-positive gate (GPC3 protein [1]) [%] | percent of cells in the binding-positive gate (GPC3 protein [2]) [%]
1 | B1 | 41.9 | – | –
2 | B2 | 62.4 | – | –
3 | B3 | 57.3 | – | –
4 | B4 | – | 70.6 | 56.9
5 | B5 | 26.5 | – | –
